The record followed here is IntAct's records for PubMed 31515488.

B1: Zinc finger protein 581 (Homo sapiens), Q9P0T4 (parent)
chain: MLVLPSPCPQPLAFSSVETMEGPPRRTCRSPEPGPSSSIGSPQASSPPRPNHYLLIDTQGVPYTVLVDEESQREPGASGAPGQKKCYSCPVCSRVFEYMSYLQRHSITHSEVKPFECDICGKAFKRASHLARHHSIHLAGGGRPHGCPLCPRRFRDAGELAQHSRVHSGERPFQCPHCPRRFMEQNTLQKHTRWKHP
B2: Protein FAM9B (Homo sapiens), Q8IZU0 (parent)
chain: MAAWGKKHAGKDPVRDECEERNRFTETREEDVTDEHGEREPFAETDEHTGANTKKPEDTAEDLTAKRKRMKMDKTCSKTKNKSKHALRKKQLKRQKRDYIHSLKLLNVLEEYITDEQKEEEEEEGEEEELIRIFQEQQKKWQQYRSVRRERLKEMKLLRDQFVKALEDFEDLCDRVFSDEDSELDN
partner: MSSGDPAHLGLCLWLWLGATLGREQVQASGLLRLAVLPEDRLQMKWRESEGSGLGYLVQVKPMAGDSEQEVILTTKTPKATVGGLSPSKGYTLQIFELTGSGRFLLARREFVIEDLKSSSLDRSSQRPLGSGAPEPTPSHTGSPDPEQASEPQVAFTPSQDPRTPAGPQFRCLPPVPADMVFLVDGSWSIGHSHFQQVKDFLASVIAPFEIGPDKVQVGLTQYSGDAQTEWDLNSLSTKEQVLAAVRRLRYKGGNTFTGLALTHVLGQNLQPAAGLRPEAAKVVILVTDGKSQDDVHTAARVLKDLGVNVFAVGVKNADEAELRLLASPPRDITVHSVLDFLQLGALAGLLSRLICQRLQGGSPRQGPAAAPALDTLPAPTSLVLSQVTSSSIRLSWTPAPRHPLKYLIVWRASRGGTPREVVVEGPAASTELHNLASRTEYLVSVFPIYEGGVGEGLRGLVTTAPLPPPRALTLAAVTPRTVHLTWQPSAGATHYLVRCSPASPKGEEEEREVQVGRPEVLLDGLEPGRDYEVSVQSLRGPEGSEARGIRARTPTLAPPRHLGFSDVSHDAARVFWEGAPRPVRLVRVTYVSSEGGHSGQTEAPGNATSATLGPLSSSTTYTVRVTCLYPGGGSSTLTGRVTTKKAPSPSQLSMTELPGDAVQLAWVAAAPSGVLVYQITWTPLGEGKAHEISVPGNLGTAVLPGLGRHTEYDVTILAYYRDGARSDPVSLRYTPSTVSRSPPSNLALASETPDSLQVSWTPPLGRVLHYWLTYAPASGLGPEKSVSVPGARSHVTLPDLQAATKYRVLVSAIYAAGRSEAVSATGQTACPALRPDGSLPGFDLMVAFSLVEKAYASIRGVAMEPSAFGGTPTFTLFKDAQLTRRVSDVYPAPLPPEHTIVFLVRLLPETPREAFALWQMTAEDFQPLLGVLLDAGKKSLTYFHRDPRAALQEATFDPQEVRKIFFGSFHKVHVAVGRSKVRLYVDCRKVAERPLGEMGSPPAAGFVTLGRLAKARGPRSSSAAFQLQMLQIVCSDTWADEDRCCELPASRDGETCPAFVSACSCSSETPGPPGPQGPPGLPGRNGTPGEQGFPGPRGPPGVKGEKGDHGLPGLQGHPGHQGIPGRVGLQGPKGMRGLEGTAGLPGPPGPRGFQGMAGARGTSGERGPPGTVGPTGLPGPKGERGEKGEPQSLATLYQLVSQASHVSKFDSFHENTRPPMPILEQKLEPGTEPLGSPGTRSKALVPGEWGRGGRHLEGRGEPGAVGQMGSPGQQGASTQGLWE
B3: IQ motif and ubiquitin-like domain-containing protein (Homo sapiens), Q8NA54 (parent)
chain: MSNQQEKYEAQNIVNSTEESDDAFDTVTIPVPSEEPQESDQTEEHESGIEQFSESHAIHVEEQSDQSFSSLEPDNEQLMEEVISPRQVSYTPQHHEKQYAMQRPNDDSLAFLDKIKSVKESLQESVEDSLATVKVVLIPVGQEIVIPFKVDTILKYLKDHFSHLLGIPHSVLQIRYSGKILKNNETLVQHGVKPQEIVQVEIFSTNPDLYPVRRIDGLTDVSQIITVTVQTGLDQYQQVPVEIVKSDFHKPFLGGFRHKVTGVEYHNAGTQTVPKRIPERLSIFCRDTQTVFQKKNLQQTTNTTSTQMTNIGVYVSNMTDKLVTPGKYFSAAEYHAQRLKAVIVIQTYYRQWHAKIFVENLRRQKSLRLEWETQQELRKIREKEEWIKLDYHRRHNPKTNEDFEFLYNALEFWRQEELTRINQSFTGAERKAALCELLEKETQIIASIGRHRYIAYMANQEAAIQAFLDKCSAPKIWRTPNGKTIEMDTQFTIRARELQNIYKCIMLKNISQDERLDVLLTLKHTVKEHECKLTQEILELIDREVDLMMRGVKHHNLEGLRKRIATLFFHYIKTPLFNPEVAKYLKVPQDPLKFYKKIYFCHSCQLYLPSTEFSVSSTSRRIYRCRNCINLQNEAQKRESFLKYKCLLQQLYYTEADYEDDSKIAFLMQLQDIQYLTENIWASQSVLSACDNLSDLVMVRWNKSLEWSPWNCILLTKDEAAAHLKLTSIEEGYERSFIHKIKHKHILAKNYFSQVPVLASFILDDGEIDEIRWKYHSDTTPKIIESQRPPH
partner: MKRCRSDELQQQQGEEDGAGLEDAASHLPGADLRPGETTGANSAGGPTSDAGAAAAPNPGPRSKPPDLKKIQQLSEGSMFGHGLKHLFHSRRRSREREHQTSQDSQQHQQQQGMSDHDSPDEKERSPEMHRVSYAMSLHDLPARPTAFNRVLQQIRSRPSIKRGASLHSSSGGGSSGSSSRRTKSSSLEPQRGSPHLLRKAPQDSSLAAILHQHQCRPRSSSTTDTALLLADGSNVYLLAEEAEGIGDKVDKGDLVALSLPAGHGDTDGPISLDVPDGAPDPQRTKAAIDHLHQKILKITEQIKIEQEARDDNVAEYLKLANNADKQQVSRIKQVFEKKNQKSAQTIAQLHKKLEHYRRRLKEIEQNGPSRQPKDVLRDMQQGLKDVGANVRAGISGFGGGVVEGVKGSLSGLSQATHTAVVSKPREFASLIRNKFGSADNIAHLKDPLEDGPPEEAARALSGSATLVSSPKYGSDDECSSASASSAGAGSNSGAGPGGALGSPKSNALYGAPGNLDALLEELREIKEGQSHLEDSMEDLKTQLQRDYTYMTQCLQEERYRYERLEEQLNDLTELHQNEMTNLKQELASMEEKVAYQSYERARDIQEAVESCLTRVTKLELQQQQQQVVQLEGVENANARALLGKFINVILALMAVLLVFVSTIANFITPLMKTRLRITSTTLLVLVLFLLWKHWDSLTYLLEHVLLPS
B4: Keratin, type I cuticular Ha8 (Homo sapiens), O76015 (parent)
chain: MTSSYSSSSCPLGCTMAPGARNVSVSPIDIGCQPGAEANIAPMCLLANVAHANRVRVGSTPLGRPSLCLPPTCHTACPLPGTCHIPGNIGICGAYGENTLNGHEKETMQFLNDRLANYLEKVRQLEQENAELEATLLERSKCHESTVCPDYQSYFHTIEELQQKILCSKAENARLIVQIDNAKLAADDFRIKLESERSLRQLVEADKCGTQKLLDDATLAKADLEAQQESLKEEQLSLKSNHEQEVKILRSQLGEKLRIELDIEPTIDLNRVLGEMRAQYEAMLETNRQDVEQWFQAQSEGISLQDMSCSEELQCCQSEILELRCTVNALEVERQAQHTLKDCLQNSLCEAEDRFGTELAQMQSLISNVEEQLSEIRADLERQNQEYQVLLDVKTRLENEIATYRNLLESEDCKLPCNPCSTSPSCVTAPCAPRPSCGPCTTCGPTCGASTTGSRF
B5: Splicing factor 45 (Homo sapiens), Q96I25 (parent)
chain: MSLYDDLGVETSDSKTEGWSKNFKLLQSQLQVKKAALTQAKSQRTKQSTVLAPVIDLKRGGSSDDRQIVDTPPHVAAGLKDPVPSGFSAGEVLIPLADEYDPMFPNDYEKVVKRQREERQRQRELERQKEIEEREKRRKDRHEASGFARRPDPDSDEDEDYERERRKRSMGGAAIAPPTSLVEKDKELPRDFPYEEDSRPRSQSSKAAIPPPVYEEQDRPRSPTGPSNSFLANMGGTVAHKIMQKYGFREGQGLGKHEQGLSTALSVEKTSKRGGKIIVGDATEKDASKKSDSNPLTEILKCPTKVVLLRNMVGAGEVDEDLEVETKEECEKYGKVGKCVIFEIPGAPDDEAVRIFLEFERVESAIKAVVDLNGRYFGGRVVKACFYNLDKFRVLDLAEQV
partner: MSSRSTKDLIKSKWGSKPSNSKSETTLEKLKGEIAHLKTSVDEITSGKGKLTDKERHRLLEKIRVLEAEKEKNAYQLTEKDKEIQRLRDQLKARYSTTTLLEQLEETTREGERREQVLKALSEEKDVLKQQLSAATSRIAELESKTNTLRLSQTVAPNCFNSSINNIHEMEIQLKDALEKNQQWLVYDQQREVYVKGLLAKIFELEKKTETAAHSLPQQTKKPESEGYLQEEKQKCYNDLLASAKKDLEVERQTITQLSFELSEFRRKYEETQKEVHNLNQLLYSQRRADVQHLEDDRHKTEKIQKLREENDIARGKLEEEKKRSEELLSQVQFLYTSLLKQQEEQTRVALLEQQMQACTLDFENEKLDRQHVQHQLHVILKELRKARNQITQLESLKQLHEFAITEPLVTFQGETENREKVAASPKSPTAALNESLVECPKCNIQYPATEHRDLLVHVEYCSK
B6: EF-hand domain-containing protein 1 (Homo sapiens), Q5JVL4 (parent)
chain: MVSNPVHGLPFLPGTSFKDSTKTAFHRSQTLSYRNGYAIVRRPTVGIGGDRLQFNQLSQAELDELASKAPVLTYGQPKQAPPADFIPAHVAFDKKVLKFDAYFQEDVPMSTEEQYRIRQVNIYYYLEDDSMSVIEPVVENSGILQGKLIKRQRLAKNDRGDHYHWKDLNRGINITIYGKTFRVVDCDQFTQVFLESQGIELNPPEKMALDPYTELRKQPLRKYVTPSDFDQLKQFLTFDKQVLRFYAIWDDTDSMYGECRTYIIHYYLMDDTVEIREVHERNDGRDPFPLLMNRQRVPKVLVENAKNFPQCVLEISDQEVLEWYTAKDFIVGKSLTILGRTFFIYDCDPFTRRYYKEKFGITDLPRIDVSKREPPPVKQELPPYNGFGLVEDSAQNCFALIPKAPKKDVIKMLVNDNKVLRYLAVLESPIPEDKDRRFVFSYFLATDMISIFEPPVRNSGIIGGKYLGRTKVVKPYSTVDNPVYYGPSDFFIGAVIEVFGHRFIILDTDEYVLKYMESNAAQYSPEALASIQNHVRKREAPAPEAESKQTEKDPGVQELEALIDTIQKQLKDHSCKDNIREAFQIYDKEASGYVDRDMFFKICESLNVPVDDSLVKELIRMCSHGEGKINYYNFVRAFSN

In the first experiment the parent is B1. The following applies: with cc136_human CCDC136, Q96JN2.
With E32A, the “effect of a mutation on the interaction” value was “with no effect”.

Variants of B1 are the subject of another experiment. The following applies: with mtus2_human MTUS2, Q5JR59.
Sequence of mtus2_human MTUS2, Q5JR59 (Q5JR59 whole entry): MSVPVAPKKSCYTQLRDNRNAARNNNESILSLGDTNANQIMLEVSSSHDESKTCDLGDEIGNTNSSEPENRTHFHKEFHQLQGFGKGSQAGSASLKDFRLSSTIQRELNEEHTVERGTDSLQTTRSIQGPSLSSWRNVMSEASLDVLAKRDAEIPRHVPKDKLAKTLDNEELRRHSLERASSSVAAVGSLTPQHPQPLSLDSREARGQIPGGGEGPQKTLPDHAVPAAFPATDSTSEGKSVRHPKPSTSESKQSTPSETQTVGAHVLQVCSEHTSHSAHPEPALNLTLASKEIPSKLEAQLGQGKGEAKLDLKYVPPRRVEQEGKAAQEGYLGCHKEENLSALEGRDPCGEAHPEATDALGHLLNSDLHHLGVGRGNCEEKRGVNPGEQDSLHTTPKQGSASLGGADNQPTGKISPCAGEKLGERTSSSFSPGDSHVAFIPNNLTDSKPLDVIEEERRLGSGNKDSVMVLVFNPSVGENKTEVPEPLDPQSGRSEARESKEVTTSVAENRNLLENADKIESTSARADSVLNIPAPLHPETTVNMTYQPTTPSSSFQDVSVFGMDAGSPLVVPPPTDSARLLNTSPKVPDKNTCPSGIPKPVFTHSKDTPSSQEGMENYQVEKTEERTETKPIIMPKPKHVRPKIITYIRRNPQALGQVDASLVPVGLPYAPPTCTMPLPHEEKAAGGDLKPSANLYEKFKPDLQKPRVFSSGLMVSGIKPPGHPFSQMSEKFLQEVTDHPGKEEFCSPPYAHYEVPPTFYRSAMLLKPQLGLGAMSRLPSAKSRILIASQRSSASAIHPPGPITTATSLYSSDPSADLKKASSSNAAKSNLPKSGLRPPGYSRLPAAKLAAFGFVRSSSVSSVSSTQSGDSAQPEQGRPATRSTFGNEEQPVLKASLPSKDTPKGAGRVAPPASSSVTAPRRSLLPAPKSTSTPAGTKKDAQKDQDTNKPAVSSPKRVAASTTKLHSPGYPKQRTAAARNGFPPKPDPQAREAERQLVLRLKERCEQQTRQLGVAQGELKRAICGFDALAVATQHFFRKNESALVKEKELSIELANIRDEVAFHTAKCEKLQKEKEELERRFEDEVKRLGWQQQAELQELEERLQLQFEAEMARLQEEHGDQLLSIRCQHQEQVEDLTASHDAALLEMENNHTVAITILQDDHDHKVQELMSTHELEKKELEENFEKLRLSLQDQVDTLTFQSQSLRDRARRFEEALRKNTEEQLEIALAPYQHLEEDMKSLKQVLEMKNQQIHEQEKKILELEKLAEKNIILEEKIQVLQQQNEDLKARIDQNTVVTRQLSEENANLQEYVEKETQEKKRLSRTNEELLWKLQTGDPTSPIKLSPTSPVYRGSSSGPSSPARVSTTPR
For the variant E32A, the “effect of a mutation on the interaction” value was “with no effect”.

The variants in the next experiment derive from B1. The following applies: with tri23_human TRIM23, P36406.
Sequence of tri23_human TRIM23, P36406 (P36406 whole entry): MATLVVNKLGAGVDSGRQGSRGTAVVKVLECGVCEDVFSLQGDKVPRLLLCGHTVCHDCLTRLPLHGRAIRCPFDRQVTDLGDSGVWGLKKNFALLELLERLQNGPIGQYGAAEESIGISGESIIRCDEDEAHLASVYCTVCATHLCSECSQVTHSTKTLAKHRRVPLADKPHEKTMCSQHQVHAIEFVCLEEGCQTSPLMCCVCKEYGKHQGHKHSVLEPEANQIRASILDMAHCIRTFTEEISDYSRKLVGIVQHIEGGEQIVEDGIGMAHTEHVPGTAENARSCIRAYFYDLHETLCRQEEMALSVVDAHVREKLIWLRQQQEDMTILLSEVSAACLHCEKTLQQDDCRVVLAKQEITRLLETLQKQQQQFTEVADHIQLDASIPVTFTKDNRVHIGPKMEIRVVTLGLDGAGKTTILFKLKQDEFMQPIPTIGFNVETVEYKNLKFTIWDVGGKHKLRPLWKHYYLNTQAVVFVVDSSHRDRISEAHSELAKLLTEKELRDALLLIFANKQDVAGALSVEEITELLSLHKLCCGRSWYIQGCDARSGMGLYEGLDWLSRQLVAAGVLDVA
In the case of E32A, the “effect of a mutation on the interaction” value is recorded as “with no effect”.

A further experiment covers variants of B2. The following applies: with coka1_human COL20A1, Q9P218.
As for R23H, the “effect of a mutation on the interaction” value is given as “with no effect”.

The variants in the next experiment derive from B3. The following applies: with tmcc2_human TMCC2, O75069.
As for V126M, the “effect of a mutation on the interaction” value is on record as “with no effect”. Regarding I501F, the “effect of a mutation on the interaction” value is “disrupting interaction strength”.

The variants in another experiment derive from B4. To be noted: with k2c4_human KRT4, P19013.
Sequence of k2c4_human KRT4, P19013 (P19013 whole entry): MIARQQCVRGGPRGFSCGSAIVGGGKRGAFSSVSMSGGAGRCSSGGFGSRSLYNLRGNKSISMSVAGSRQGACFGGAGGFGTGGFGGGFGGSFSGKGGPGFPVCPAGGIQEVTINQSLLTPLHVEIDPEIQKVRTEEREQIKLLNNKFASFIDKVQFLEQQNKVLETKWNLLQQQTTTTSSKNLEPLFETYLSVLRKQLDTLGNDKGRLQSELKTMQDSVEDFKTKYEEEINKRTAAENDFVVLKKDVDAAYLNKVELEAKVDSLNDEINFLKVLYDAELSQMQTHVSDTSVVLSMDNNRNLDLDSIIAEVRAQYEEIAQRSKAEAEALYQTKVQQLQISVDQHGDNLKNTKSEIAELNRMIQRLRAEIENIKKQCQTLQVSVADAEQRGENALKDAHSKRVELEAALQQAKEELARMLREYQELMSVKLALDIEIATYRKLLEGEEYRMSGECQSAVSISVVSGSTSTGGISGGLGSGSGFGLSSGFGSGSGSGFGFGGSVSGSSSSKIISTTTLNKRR
As for A205S, the “effect of a mutation on the interaction” value is given as “with no effect”.

In the next experiment the parent is B4. The following applies: with k2c8_human KRT8, P05787.
Sequence of k2c8_human KRT8, P05787 (P05787 whole entry): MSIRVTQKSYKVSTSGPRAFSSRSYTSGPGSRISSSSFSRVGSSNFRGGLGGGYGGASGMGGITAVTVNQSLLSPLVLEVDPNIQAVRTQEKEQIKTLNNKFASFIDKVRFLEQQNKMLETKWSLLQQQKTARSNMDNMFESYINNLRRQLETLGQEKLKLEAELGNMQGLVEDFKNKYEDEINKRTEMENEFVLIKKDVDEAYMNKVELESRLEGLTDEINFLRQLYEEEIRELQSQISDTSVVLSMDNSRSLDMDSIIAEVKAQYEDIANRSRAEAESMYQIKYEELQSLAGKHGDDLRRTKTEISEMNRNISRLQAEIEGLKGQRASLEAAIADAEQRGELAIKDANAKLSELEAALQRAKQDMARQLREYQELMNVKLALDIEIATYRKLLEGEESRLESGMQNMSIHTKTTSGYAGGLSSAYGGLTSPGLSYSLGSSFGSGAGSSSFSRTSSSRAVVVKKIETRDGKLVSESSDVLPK
Regarding A205S, the “effect of a mutation on the interaction” value was “with no effect”.

The variants in the next experiment derive from B4. The following applies: with KRT6A.
With A205S, the “effect of a mutation on the interaction” value was “with no effect”.

The variants in another experiment derive from B4. The following applies: with k22e_human KRT2, P35908.
Sequence of k22e_human KRT2, P35908 (P35908 whole entry): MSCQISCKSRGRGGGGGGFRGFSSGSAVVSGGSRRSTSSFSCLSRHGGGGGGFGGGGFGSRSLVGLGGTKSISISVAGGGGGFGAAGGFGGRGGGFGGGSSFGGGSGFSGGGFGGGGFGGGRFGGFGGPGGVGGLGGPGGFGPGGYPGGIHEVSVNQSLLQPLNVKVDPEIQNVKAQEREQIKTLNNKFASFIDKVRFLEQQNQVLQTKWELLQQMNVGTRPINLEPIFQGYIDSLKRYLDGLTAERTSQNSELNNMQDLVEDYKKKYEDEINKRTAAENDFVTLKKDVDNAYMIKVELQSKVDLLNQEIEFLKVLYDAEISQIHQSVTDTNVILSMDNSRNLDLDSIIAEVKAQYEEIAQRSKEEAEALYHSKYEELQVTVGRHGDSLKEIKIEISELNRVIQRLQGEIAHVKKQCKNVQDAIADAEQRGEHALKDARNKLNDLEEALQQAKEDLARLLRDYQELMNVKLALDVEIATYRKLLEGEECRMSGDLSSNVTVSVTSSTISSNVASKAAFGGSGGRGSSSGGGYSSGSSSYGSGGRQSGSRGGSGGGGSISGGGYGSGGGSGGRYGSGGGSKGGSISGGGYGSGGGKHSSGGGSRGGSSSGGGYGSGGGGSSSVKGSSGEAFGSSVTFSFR
Turning to A205S, the “effect of a mutation on the interaction” value is reported as “with no effect”.

In the next experiment the parent is B5. The following applies: with cep55_human CEP55, Q53EZ4.
With T224I, the “effect of a mutation on the interaction” value is recorded as “with no effect”.

Another experiment covers variants of B6. To be noted: with itf2_human TCF4, P15884.
Sequence of itf2_human TCF4, P15884 (P15884 whole entry): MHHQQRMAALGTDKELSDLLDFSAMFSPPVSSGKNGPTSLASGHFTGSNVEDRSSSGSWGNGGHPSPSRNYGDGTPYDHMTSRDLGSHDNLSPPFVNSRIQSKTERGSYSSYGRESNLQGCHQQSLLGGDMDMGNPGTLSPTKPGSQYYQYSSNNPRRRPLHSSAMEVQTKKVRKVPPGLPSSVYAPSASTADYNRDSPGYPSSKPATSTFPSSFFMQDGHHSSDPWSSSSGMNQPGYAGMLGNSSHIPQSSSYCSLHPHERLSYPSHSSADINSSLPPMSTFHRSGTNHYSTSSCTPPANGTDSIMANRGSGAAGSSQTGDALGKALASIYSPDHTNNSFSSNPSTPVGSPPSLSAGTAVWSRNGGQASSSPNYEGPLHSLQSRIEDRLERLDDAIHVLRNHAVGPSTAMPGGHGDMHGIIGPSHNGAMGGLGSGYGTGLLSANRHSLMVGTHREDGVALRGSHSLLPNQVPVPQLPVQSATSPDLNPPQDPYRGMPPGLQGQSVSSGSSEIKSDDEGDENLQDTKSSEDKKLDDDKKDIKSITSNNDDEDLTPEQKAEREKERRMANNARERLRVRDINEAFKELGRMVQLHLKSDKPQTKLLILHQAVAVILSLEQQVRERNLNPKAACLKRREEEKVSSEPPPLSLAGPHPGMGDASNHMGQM
Take R159W: the “effect of a mutation on the interaction” value is “with no effect”.

Variants of B6 are the subject of a further experiment. The following applies: with ikzf3_human IKZF3, Q9UKT9.
Sequence of ikzf3_human IKZF3, Q9UKT9 (Q9UKT9 whole entry): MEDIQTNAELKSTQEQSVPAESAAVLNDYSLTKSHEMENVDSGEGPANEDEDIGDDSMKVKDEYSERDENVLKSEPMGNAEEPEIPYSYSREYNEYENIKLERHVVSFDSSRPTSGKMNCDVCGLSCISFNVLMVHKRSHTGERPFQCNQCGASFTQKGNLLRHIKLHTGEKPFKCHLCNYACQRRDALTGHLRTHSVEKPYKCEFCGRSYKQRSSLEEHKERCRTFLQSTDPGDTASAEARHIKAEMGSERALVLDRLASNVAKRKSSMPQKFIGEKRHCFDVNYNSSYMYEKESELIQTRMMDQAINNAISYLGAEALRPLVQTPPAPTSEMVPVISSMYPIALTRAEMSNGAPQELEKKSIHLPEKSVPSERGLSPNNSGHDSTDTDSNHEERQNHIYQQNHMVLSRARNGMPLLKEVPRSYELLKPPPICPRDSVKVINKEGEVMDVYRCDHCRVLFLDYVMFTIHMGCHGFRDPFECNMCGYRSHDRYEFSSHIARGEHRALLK
As to R159W, the “effect of a mutation on the interaction” value is given as “with no effect”.
